The data set concerns HEK293T. Briefly: median enrichment of reporter reads in eGFP-reduced (low/intermediate) vs eGFP-high sorted cells (eGFP-extension fusion abundance) (ratio); higher = stronger loss of eGFP-fusion protein abundance (more destabilising extension).
Take QRHGVLGGLMGTGACIFCWGMKLITLL [AGBL4]: the median enrichment stood at 4.93.

As for QNRIEQNRIE [PCSK5], the median enrichment was 0.813. Under RCRVFSSFFLLQEFVVT [MMP16] stands 3.48; under QVLSPNNFFLSEVKGLKISWK [ENOSF1], 10.9; under YVFLQCVLQARFIITYRFMISKIK [CLEC3A], 9.75. To “WGWTPVPAGRSPDMWTCSFVPTVHAGLRLEPRGAGQFTGSCRTRCQPLRGGTADARGFAHPGPSVPRAK [ITPKA]” belongs 6.95; to WFSPVICSINGLIINVSLRHDKHFNTQ [DNAAF1], 13.3; to YSCVVKINMRKLPCNLNLGFPCNRN [IL23R], 22.3.

Regarding RSHTACSFGCD [EIF2B5], the median enrichment was found to be 0.722. Under QHTQNSLTRTISFCKGF [KRR1] stands 1.62; under “RGNLQAEEVSAAALLEPGRGLPVSQPGPATQDSWDIPCVTPLRPFGLAPWLSLREVALRLAIYIYNLFT [HK3]”, 4.11; under QLRILKRSHGKTS [NBN], 7.35. To “YRGPCRHHPPPSPCPQPVCPVPCPPQAWWWQWRRLRRLKRLTGRGAFCLAHCPDDPPAPSRLQQQSPRRTGWTEEKEVDCCTH [SOX10]” belongs 3.52; to IIIII [Ile05], 8.97; to LVCPLATDTVGNQTLSWSLLLAHSTSKWI [HIBADH], 12.8. Under SVLPSVTSNSGKRKLK [STARD13] stands 0.451.

For FFFFFFF [Phe07], the median enrichment is 7.66. “WQGLPQHQSGDCDREGLAGTPRASGVVTDQEGLARTSANICGAAANNAAITENMVLVLKNVQCHFQQFKINRQNHPVARIT [OR2T2]”: the median enrichment was found to be 6.25.

With YHCESITFSLSCSWTFCTENPGI [CREBBP], the median enrichment was 33.7. Regarding QSSYPLEEDCFQII [KDSR], the median enrichment amounted to 0.764.

As to SGSCCVPTETTIWGLLGNAVNAEGSDVWVL [PATZ1], the median enrichment came to 10.9. On to SEITDTFFGIHILGLGGVAHACNPSPLGG [CTSL], for which the median enrichment was 13.3. To YYYYYYYYY [Tyr09] belongs 4.03. With YPPAQPRTDMNIGWTEVASV [PIP4K2A], the median enrichment came out at 5.83. As for SGSIFLIDEKNNSVMAIYPC [NDUFA1], the median enrichment was 9.19.

Consider SETEASLFHSPS [EPB41L4B], for which the median enrichment was 0.374. Under “SPQDQGKEDGRTGAKLVGGRGGGGRDDRPWMCPQGPRSEVSTVLPARAPVPPLAATPSPIISFAPRLLRGAPVLAPAPTSAPD [FOXP3]” stands 1.18; under KDS [RPAP1], 0.532. Under “WGNKRKLSPESATSAPSIFSINALYQPQSSLFKLTPC [ZNF474]” stands 8.63.

In the case of “SNSLRLAAPLGFLPCRTCLEVLPGGGGRGRLDLLS [AQP6]”, the median enrichment came out at 3.45.

As for “GTSPAPLRTPPRLDGWAHASHWGPGSRRWAPTLGPRGAANHTGLRPSYPAPSPSTSTFTSPPFHFFLYVFFLLETDSIHIEYN [JUNB]”, the median enrichment came to 4.58. For “LPLVLYSNLFGNDSSTHRTACVRAHTHTHTHTHTHH [GNAO1]”, the median enrichment turned out to be 3.16. To “PARVSGPRSIENTTTMARWKGLLVPASSCPPWCRWPGQPTGLGTGQAGPGRGLSLGGNKSRPTRRCCSGSRCRCRDKSAAVSG [MLST8]” belongs 9; to QNASVRIKD [BORA], 0.475. With NNNNNNNNNN [Asn10], the median enrichment is 0.3. Regarding “IVGPKGKEGKSAPRLGPGTHTPPDHLGNSRALRSRMLTKSNIQSLVNQDAVSPSVWQSVALAAGKLKADFHSYVHVDIHFRSS [RNF150]”, the median enrichment is 4.94. Under RARCPSPS [PTH2] stands 2.74; under QVISQSIYVLSNM [PSMA1], 7.19; under “YLRTLPFFPLSSLPLPFLPIYPFPSSKSTQGEENKMTTQDLVAKILHSKSSFV [FGF12]”, 9.45.

As for “RILPNALSENAELPFLFASFIFNIHNVVCLKVGFEVCAAYSFHLSPRFPSL [RRAGA]”, the median enrichment turned out to be 15.7. Under WCPGVCCLAHMSLL [CLSTN2] stands 5.25; under “QSPSVLPLSPLSPWPVVVPQPLPPSTSSVSPSPRLINLLIDCDSK [ERGIC3]”, 9.24; under “RGAHGQDWWGLQDVRRVRCLALATLFLVGFCCCSCYFHL [PSMC3IP]”, 7.83. In the case of LNFNKTFKITEIFKI [LIAS], the median enrichment was determined as 9.41. To “LGNCWLAWHHHTATASHLLCQGGTSSAGACPVLCGRCCVLLNTAGPAITPWAWRSLGVSRCGGGQPGWPHSITGTACLGTRFP [PIGQ]” belongs 5.81. Under RVT [OR2M3] stands 0.571; under LKVSVNLQC [ZFR], 6.3.

Consider TTTTTTT [Thr07], for which the median enrichment is 0.319. Under “SRKFLRCCHLLEMRFVLCLNGLFFKKTKNQMKEHSWGFLFVCVCMCKLMSNCICRSVIVLYCVNYFHCGYFSR [U2SURP]” stands 5.89. To CGALRPS [PNKD] belongs 0.539; to “YQVAELGPLGQGAQATSSFVVTKQGSPFPFLLPYFVQRTRVIYIYICICLYPSPHLSDSALGTQLWAARGAVPCGSSCVCVPS [SCAMP5]”, 8.36; to “RVFGNRISCVAHRPVEKLEPKLSYLEMTFGLDSW [C12orf76]”, 4.28. Regarding CSPMPAHL [CDNF], the median enrichment amounted to 7.02. Regarding “SGSVTRCSLIPADLTGPLANPTSNQKCSSVESETGKWLLQDYSLLQKRNQIHEWKSLCKFNFITHNMYYFF [PUM1]”, the median enrichment stood at 8.89. Under LAAHPASSHVVWEQRDSHLRGGV [RASAL3] stands 2.07; under SAGAFVAISL [MSI2], 3.7. Take “WNEPWSPLQSSPWDRDVAGQNSQLCVCVFRLIGNSKSLLPAPSKLDGQWSGIETVV [IL18RAP]”: the median enrichment was 5.03.

For YRRIYVLFKQEKVTLPMLSPLHNI [CDH10], the median enrichment turned out to be 8.74. To YPNIIQGTEIKELRFKHKCLAQTYL [EEF1E1] belongs 7.38. Consider WRQRGGKETWLSLIICIQITVL [ATXN1], for which the median enrichment came out at 8.6. To “SPAPHHPQEHSTHHRQPLETSYMSLGAEREVPSPCRTRSCMCLTQVWTGGHLGAGQGHPSLHIT [RABEPK]” belongs 7.59; to QTGHPTHLHAKILPASSLRVPW [UBL4B], 4.81.

Regarding RAMPSLCAVKLSMHYILLAPLQVNAKSQLG [CDC14A], the median enrichment is 7.49. Under “YEQGGLGWPSPGGCGWGQETQPTTAPVSSPHKAAWVCTVCKLQDTLPGDPRGHSYTLFTRKIQRSQ [C2orf50]” stands 9.09. To YMSEHGLSQACLHGIRLATPARPPGWFFSS [TJP2] belongs 4.38; to WGGLN [OR3A1], 1.04. To YGDNSPVSKPGCQIQ [KIR3DL2] belongs 3.37.

Consider GLLPVDEVSFL [ABCC5], for which the median enrichment stood at 0.739.

Regarding YNSEVNVLKYNY [TEFM], the median enrichment worked out at 0.662.

EILGSKYTSLFKNSNLI [OR10G4]: the median enrichment amounted to 11.8.

On to YLSNH [WDR27], for which the median enrichment amounted to 3.24. Under “CVETCAPRRGAAVREGLCTAAPATDPVRKYLLGASPGLGLGMRWSPGLSFLSTQWVILASTCRAPCQALPTHLPV [OLFML2A]” stands 7.4; under YILKTQPSSKRHAPPHSPGPGRGGCSS [ADORA1], 2.57; under GGFFC [GBP7], 0.518.

Turning to RGPASHGPRTMESPLSS [GNB1L], the median enrichment amounted to 0.533. Under “RMSSFIRIWALSSFFSTHFPLPGPPLIQMPPSDSSWKPFLQLGQYDF [MSANTD2]” stands 33.9; under CRKVSKNVNIL [C2orf49], 0.739; under CNTM [STAP1], 0.724. Take SEVLLETKSPSPIAEGGGDPLL [ARID3C]: the median enrichment amounted to 0.257. Under “YAQPGPQIRSAQQRPGPSSRTTRPHHASCSQTQN [CCDC27]” stands 0.132; under WGSEPRPSGFTCLVKAFVMISLN [KRTAP5-10], 10.1. To “KCEACDKVSIWKSHLKDIGEFILERKLTNVRFLTRLGSDSHLEQHTGLHTGEKPYKCNECGKAFGKQSTLIHHQAIHGVGKLD [ZNF611]” belongs 6.92; to RVFHP [ZSWIM8], 0.463; to “EKPSRRKNSLSQFSKEPRILQRMCEDFPVLDGE [SAMD7]”, 1.53. To “LEKPQVLLRLLSLPCQVSPVLTIQLGSTPFALLPCHTVLCLLFQVGMIMPSPANILQGPPNLIAGHSQPSESESRFLLSLPSS [PGLYRP4]” belongs 7.65; to “WGGPNLDSFPALGHRRPGSSARQAWARRAPGRALSAAGARPRTSAGTRESLLGRSVNKPFFLLFFKNCFSH [DUOXA2]”, 5.58. Consider QALSIPM [IDH3B], for which the median enrichment was found to be 0.815. To “WCWKRSKHWPLVSTLQPPQVPLWGDTGGPLAVTPCAWSDPRPLPPARFLLSPAWEDVSLSTSQRARGARGWTGQ [PPP2R1A]” belongs 3.49; to “LEPWGWGRGCQLHSGTLGRWASERLLTGSGASRCQAASGPLGCPGQACEEGLRWGRQGAPGSRDHR [RPUSD1]”, 5.25; to CGA [FOSL1], 0.817.

Turning to YEQCIT [DCTN6], the median enrichment was found to be 2.67. To QCLCRIKCLLFYMHILKEKQRPEPRRG [RIOX2] belongs 4.27; to “EEITRWHQPRALARYGEGTWGPHLPPGLFREDPTVTPPSAVGAWRWAAGLNPPWGAPFLLPICVYIHK [MEF2B]”, 6.73; to YSV [ILF3], 0.744. Under “RTPNTIFAIQPQAMGTAFLPRGPGRPQRLLQARTLVHYTPCLGAEILQQKDAIFFVSFFSIFFSKESIFQYVECVSNAMKLKY [NFYC]” stands 15.8; under “CLGKAGHKNLHEQYFFLNRMFYYSSQVLECLHTII [FAM24A]”, 4.34; under KPVLGPSVKYP [GNPDA1], 0.312. Under LHGPCMLINASSEM [TMEM205] stands 5.79.

(Values after the supplement of paper PMC11502859.)
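Further: lentiviral eGFP-IRES-mCherry reporter pool sorted by FACS 96 h post-transduction, gated on mCherry-high cells, Illumina read counts normalized per million, median across four biological replicates.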
